# Reference: patent publication US20160159862A1 (PROTAGONIST THERAPEUTICS, published 2016)
# Bridge positions count the residues as written; N and C are the ends. Square brackets hold non-standard residues; d marks the D form. Bip = N[C@@H](Cc1ccc(-c2ccccc2)cc1)C(=O)O; 1Nal = N[C@@H](Cc1cccc2ccccc12)C(=O)O; 2Nal = N[C@@H](Cc1ccc2ccccc2c1)C(=O)O; NMeR = CN[C@@H](CCCNC(=N)N)C(=O)O; Tic = O=C(O)[C@@H]1Cc2ccccc2CN1; β3hE = N[C@@H](CCC(=O)O)CC(=O)O; NMeK = CN[C@@H](CCCCN)C(=O)O; Pen = CC(C)(S)[C@H](N)C(=O)O; dNMeK = CN[C@H](CCCCN)C(=O)O
# B1: biotin-labeled vedolizumab (antibody, INN chains, looked up, V domains shown)
# VH: QVQLVQSGAEVKKPGASVKVSCKGSGYTFTSYWMHWVRQAPGQRLEWIGEIDPSESNTNYNQKFKGRVTLTVDISASTAYMELSSLRSEDTAVYYCARGGYDGWDYAIDYWGQGTLVTVSS
# VL: DVVMTQSPLSLPVTPGEPASISCRSSQSLAKSYGNTYLSWYLQKPGQSPQLLIYGISNRFSGVPDRFSGSGSGTDFTLKISRVEAEDVGVYYCLQGTHQPYTFGQGTKVEIKR
# modifications: biotin label
# B2: SEQ ID NO 212 (peptide)
# peptide: Ac-[Pen][NMeR]SDTL[Pen][2Nal]E[dK]-NH2
# modifications: disulfide 1-7 (inferred); also: homodimer via DIG
# B3: SEQ ID NO 154 (peptide)
# peptide: Ac-[Pen][NMeR]SDTL[Pen][Tic][β3hE]-NH2
# modifications: disulfide 1-7 (inferred)
# B4: SEQ ID NO 150 (peptide)
# peptide: Ac-[Pen][NMeR]SDTL[Pen][Bip][b‑H‑E][NMeK]-NH2
# modifications: disulfide 1-7 (inferred); also: homodimer via DIG
# B5: SEQ ID NO 23 (peptide)
# peptide: Ac-[Pen][NMeR]SDTL[Pen][2Nal]Y[dK]-NH2
# modifications: disulfide 1-7 (inferred); also: homodimer via DIG
# B6: SEQ ID NO 137 (peptide)
# peptide: Ac-[Pen][NMeR]SDTL[Pen][2Nal][β3hE][dK]-NH2
# modifications: disulfide 1-7 (inferred); also: homodimer via DIG
# B7: SEQ ID NO 134 (peptide)
# peptide: Ac-[Pen][NMeR]SDTL[Pen][Bip]E[dK]-NH2
# modifications: disulfide 1-7 (inferred); also: homodimer via DIG
# B8: SEQ ID NO 210 (peptide)
# peptide: Ac-[Pen][NMeR]SDTL[Pen][2Nal]E[dK]-NH2
# modifications: disulfide 1-7 (inferred)
# B9: SEQ ID NO 18 (peptide)
# peptide: Ac-[Pen][NMeR]SDTL[Pen][1Nal]E[dNMeK]-NH2
# modifications: disulfide 1-7
# SMILES: CC(=O)N[C@@H]1C(=O)N(C)[C@@H](CCCNC(=N)N)C(=O)N[C@@H](CO)C(=O)N[C@@H](CC(=O)O)C(=O)N[C@@H]([C@@H](C)O)C(=O)N[C@@H](CC(C)C)C(=O)N[C@H](C(=O)N[C@@H](Cc2cccc3ccccc23)C(=O)N[C@@H](CCC(=O)O)C(=O)N(C)[C@H](CCCCN)C(N)=O)C(C)(C)SSC1(C)C
# B10: SEQ ID NO 24 (peptide)
# peptide: Ac-[Pen][NMeR]SDTL[Pen][1Nal]E[dK]-NH2
# modifications: disulfide 1-7 (inferred); also: homodimer via DIG
# B11: SEQ ID NO 33 (peptide)
# peptide: Ac-[Pen][NMeR]SDTL[Pen][2Nal][dE][dK]-NH2
# modifications: disulfide 1-7 (inferred); also: homodimer via DIG linker
# Biological target: soluble α4β7 integrin (Homo sapiens (Human)) (UniProt P13612)
# Test: SPR, antibody on streptavidin chip, soluble α4β7 as analyte
Half-life for dissociation [min],Kd [nM],koff [s⁻¹],kon [M⁻¹ s⁻¹],Binder
43,59.5,0.000266,4470,B1

# Biological target: α4β7 integrin on human cells (human) (UniProt P13612)
# Test: FACS, human whole blood, 1 mM MnCl2, NK cells CD16+ 56+
row,Percent positive staining [%],Binder
1,42,B1

# Biological target: α4β1 (R&D Systems #5668-A4) (UniProt P13612)
# Test: α4β1-VCAM competition ELISA
row,IC50 [nM],Binder
1,70,B2
2,> 1000,B3
3,> 1000,B4
4,> 100,B5
5,> 1000,B6
6,> 100,B7
7,200,B8
8,> 500,B9
9,> 100,B10
10,> 100,B11

# Biological target: α4β7 integrin on human cells (human) (UniProt P13612)
# Test: FACS, human whole blood, 1 mM MnCl2, CD8 memory T cells
row,Percent positive staining [%],Binder
1,36,B1

# Biological target: rh integrin α4β7 (R&D Systems #5397-A30) (human) (UniProt P13612)
# Test: α4β7-MAdCAM competition ELISA
row,IC50 [nM],Binder
1,2,B2
2,< 10,B4
3,< 10,B6
4,< 10,B7
5,11,B8
6,> 10,B9
7,< 10,B10
8,< 10,B11

# Biological target: α4β7 integrin on human cells (human) (UniProt P13612)
# Test: FACS, human whole blood, 1 mM MnCl2, Basophils
row,Percent positive staining [%],Binder
1,86,B1

# Biological target: α4β7 integrin on human cells (human) (UniProt P13612)
# Test: FACS, human whole blood, 1 mM MnCl2, CD4 memory T cells
row,Percent positive staining [%],Binder
1,22,B1

# Biological target: α4β7 integrin on human cells (human) (UniProt P13612)
# Test: FACS, human whole blood, 1 mM MnCl2, CD4 naïve T cells
row,Percent positive staining [%],Binder
1,55,B1

# Biological target: α4β7 integrin on human cells (human) (UniProt P13612)
# Test: FACS, human whole blood, 1 mM MnCl2, Eosinophils
row,Percent positive staining [%],Binder
1,91,B1

# Biological target: α4β7 integrin on human cells (human) (UniProt P13612)
# Test: FACS, human whole blood, 1 mM MnCl2, CD8 naïve T cells
row,Percent positive staining [%],Binder
1,53,B1

# Biological target: α4β7 integrin on human cells (human) (UniProt P13612)
# Test: FACS, human whole blood, 1 mM MnCl2, CD19+ B cells
row,Percent positive staining [%],Binder
1,85,B1

# Biological target: T1, α4β1 integrin on human cells (human, UniProt P13612 34-1032; P05556 21-798)
# Test: cell-based or functional assay
row,Cell Adhesion α4β1 IC50 [nM],Binder
1,> 100000,B2
2,> 100000,B8

# Biological target: T2, α4β7 integrin on human cells (human, UniProt P13612 34-1032; P26010 20-798)
# Test: cell-based or functional assay
Cell Adhesion α4β7 IC50 [nM],Cell Adhesion PBMC IC50 [nM],Binder
2.5,,B2
40,517,B8

# Biological target: T3, α4β7 integrin on mouse TK1 cells (mouse, UniProt Q00651 41-1039; P26011 20-806)
# Test: cell-based or functional assay
# T3 sequence (Q00651 41-1039, chain 1 of 2): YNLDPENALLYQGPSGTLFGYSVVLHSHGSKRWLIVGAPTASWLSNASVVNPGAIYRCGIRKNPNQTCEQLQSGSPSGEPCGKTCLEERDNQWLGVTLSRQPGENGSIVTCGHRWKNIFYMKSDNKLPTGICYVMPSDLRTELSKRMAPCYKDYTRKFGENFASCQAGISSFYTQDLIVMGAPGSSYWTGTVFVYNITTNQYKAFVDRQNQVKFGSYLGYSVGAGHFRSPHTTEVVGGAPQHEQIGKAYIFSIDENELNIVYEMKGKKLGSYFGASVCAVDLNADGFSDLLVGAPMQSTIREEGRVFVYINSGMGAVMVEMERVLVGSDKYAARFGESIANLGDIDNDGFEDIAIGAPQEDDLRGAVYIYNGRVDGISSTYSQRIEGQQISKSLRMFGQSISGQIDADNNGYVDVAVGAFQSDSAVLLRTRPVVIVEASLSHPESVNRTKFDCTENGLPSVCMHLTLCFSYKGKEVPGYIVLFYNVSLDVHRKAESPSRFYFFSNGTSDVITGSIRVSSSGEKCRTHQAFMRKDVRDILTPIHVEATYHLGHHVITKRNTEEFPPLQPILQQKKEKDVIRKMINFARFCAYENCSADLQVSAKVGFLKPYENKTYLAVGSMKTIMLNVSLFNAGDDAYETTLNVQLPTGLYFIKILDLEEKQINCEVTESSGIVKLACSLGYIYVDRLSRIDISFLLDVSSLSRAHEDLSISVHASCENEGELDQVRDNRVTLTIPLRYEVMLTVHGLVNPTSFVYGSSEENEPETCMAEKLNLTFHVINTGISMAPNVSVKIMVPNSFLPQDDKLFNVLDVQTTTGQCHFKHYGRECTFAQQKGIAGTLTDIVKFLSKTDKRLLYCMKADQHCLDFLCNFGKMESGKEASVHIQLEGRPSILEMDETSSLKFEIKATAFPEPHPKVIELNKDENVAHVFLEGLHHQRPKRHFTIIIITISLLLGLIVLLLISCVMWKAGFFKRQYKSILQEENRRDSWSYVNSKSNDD
# T3 sequence (P26011 20-806, chain 2 of 2): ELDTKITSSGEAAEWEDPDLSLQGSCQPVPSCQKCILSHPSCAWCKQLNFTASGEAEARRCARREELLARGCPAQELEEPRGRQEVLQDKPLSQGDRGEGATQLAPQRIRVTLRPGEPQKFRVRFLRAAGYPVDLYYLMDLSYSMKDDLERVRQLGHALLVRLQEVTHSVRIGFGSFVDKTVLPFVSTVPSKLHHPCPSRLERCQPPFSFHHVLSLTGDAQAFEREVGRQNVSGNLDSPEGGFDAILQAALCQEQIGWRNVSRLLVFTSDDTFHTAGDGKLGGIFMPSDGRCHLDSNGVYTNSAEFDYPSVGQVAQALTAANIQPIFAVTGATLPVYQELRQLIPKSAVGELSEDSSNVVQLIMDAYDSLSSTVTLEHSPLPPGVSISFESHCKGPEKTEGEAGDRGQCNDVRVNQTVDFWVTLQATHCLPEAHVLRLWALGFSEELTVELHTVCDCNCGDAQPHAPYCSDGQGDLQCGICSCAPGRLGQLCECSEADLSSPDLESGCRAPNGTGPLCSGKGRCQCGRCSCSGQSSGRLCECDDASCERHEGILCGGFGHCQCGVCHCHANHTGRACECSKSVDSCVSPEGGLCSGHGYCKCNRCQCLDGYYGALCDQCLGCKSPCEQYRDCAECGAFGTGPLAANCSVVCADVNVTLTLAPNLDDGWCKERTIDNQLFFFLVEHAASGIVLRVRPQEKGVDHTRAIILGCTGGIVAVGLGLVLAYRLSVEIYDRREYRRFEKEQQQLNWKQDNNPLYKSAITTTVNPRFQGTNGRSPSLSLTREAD
row,Cell Adhesion α4β7 Mouse IC50 [nM],Binder
1,2.5,B2
2,60,B8

# Biological target: α4β7 integrin on human cells (human) (UniProt P13612)
# Test: FACS, human whole blood, 1 mM MnCl2, Neutrophils
row,Percent positive staining [%],Binder
1,0.45,B1

# Biological target: T1, α4β1 integrin on human cells
# Test: cell-based or functional assay
# Remark: another data set of the same source
row,α4β1 cell IC50 [nM],Binder
1,> 100000,B11

# Biological target: T2, α4β7 integrin on human cells
# Test: cell-based or functional assay
# Remark: another data set of the same source
row,α4β7 cell (Hu) IC50 [nM],Binder
1,> 100,B3
2,≤ 10,B4
3,≤ 10,B5
4,≤ 10,B6
5,≤ 10,B7
6,≤ 10,B10
7,> 10,B11

# Biological target: T3, α4β7 integrin on mouse TK1 cells
# Test: cell-based or functional assay
# Remark: another data set of the same source
row,α4β7 cell(Mu) IC50 [nM],Binder
1,> 1000,B3
2,≤ 10,B4

# Biological target: α4β7 integrin on human cells (human) (UniProt P13612)
# Test: FACS, human whole blood, 1 mM MnCl2, Monocytes
row,Percent positive staining [%],Binder
1,7,B1
